Assay results from patent US20110223183A1.

Target: Flt1/VEGFR1 (human) (UniProt P17948)
Assay: cell-based or functional assay

UniProt P17948, sequence (P17948 27-1338): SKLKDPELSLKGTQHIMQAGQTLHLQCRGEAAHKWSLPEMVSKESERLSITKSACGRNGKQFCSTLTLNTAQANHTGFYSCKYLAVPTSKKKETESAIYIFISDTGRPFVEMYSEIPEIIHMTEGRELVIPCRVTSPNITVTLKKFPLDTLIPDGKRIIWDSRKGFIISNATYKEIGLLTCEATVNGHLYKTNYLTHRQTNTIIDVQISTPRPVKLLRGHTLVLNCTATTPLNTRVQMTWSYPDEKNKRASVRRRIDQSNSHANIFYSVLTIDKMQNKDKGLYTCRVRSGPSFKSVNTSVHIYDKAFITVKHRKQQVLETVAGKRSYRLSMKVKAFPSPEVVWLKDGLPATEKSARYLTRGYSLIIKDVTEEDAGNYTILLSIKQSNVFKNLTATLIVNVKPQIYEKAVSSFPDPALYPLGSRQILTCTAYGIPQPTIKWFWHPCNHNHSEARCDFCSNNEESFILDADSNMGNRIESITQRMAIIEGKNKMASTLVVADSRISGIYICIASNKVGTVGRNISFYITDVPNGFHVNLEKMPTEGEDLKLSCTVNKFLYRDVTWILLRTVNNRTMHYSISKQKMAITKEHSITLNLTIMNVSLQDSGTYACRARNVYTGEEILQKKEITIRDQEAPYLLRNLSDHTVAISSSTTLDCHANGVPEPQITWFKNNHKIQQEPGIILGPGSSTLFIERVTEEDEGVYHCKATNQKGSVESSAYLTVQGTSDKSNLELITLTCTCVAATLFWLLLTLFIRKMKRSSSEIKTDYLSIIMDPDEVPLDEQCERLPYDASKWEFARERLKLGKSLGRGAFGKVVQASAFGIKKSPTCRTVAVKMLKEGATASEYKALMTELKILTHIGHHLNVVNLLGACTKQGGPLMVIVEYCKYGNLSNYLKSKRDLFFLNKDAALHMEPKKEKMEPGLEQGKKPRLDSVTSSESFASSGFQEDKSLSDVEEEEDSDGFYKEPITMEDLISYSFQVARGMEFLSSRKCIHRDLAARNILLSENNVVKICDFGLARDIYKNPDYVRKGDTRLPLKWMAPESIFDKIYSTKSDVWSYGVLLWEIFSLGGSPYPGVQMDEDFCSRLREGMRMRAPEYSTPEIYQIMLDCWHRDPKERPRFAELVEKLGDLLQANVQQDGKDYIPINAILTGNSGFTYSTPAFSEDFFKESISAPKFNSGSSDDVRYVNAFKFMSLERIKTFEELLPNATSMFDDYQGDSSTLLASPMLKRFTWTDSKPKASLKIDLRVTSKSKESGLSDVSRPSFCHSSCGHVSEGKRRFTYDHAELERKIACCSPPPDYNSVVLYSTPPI

HUVEC buds containing multiple filopodia: 250%
Substance: placental growth factor (ligand)
